According to paper PMC9894557, “The opportunistic pathogen Pseudomonas aeruginosa exploits bacterial biotin synthesis pathway to benefit its infectivity” (PLOS Pathogens, 2023):

Biological target: the molecule itself
Test: SEC; gel filtration on a Superdex 75 column; Streptococcus suis FakB2 (~33 kDa, known monomer) as size control

Protein | binding result
Pseudomonas aeruginosa BioH (PA0502) S66A (enzyme, BioH (PA0502), Pseudomonas aeruginosa PAO1, catalytic triad mutant; Purification is described only for the wild type; also called BioH(S66A); source: E. coli, from pET28a::bioH(S66A), purified) MRDHLILLPGWGLGSAPLEPLRDALHEREPHLNVLIEPLPSLDDAADWLDELDDNLPRDSWLAGWALGGMLAGELAARRGDDCRGLLTLASNPCFRVREDWPNAMPAETFEDFFEAFLLEPHLTRKRFTLLVSQGARDPRTLARQLQVALPQLEREALVAGLQLLGQLDTRAALENFRGPQLHLFAEADALVPLAAAEALLEWLPDVEVSTLAASHGLPLECPDEVAGAILRFLREGDDA | binds
Pseudomonas aeruginosa BioH (PA0502) D189A (enzyme, BioH (PA0502), Pseudomonas aeruginosa PAO1, catalytic triad mutant; Purification is described only for the wild type; also called BioH(D189A); source: E. coli, from pET28a::bioH(D189A), purified) MRDHLILLPGWGLGSAPLEPLRDALHEREPHLNVLIEPLPSLDDAADWLDELDDNLPRDSWLAGWSLGGMLAGELAARRGDDCRGLLTLASNPCFRVREDWPNAMPAETFEDFFEAFLLEPHLTRKRFTLLVSQGARDPRTLARQLQVALPQLEREALVAGLQLLGQLDTRAALENFRGPQLHLFAEAAALVPLAAAEALLEWLPDVEVSTLAASHGLPLECPDEVAGAILRFLREGDDA | binds
